Source: patent publication US20240116999A1 (TRUSTEES OF INDIANA UNIVERSITY, published 2024)
Bridge positions count the residues as written; N and C are the ends. Square brackets hold non-standard residues; d marks the D form. Ends that are not written are not given here. Orn = NCCC[C@H](N)C(=O)O

Target: glucagon receptor (GCGR)
Assay: cell-based or functional assay

B1: Glucagon-EEK (peptide)
peptide: HSQGTFTSDYS[Orn]YLDS[Orn][Orn]AQDFVQWLMNTEEK
EC50, cell-based cyclic AMP (cAMP) activity assay: 93.5 nM

B2: O12, O18, K13, E17-Lactam-Glucagon-EEK (peptide)
peptide: HSQGTFTSDYS[Orn]KLDSE[Orn]AQDFVQWLMNTEEK
modifications: lactam 13-17
EC50, cell-based cyclic AMP (cAMP) activity assay: 126 nM
